Drawing on US20230192896A1 (published 2023), this text covers Kd for 18 molecules.

Sequences and labels used below:
T1: FX zymogen (UniProt P00742 41-179; P00742 183-488)
T1 chain 1: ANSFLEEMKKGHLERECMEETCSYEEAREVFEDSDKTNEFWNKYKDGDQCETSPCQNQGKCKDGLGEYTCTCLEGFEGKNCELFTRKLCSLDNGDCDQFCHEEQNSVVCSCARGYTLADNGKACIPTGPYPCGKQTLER
T1 chain 2: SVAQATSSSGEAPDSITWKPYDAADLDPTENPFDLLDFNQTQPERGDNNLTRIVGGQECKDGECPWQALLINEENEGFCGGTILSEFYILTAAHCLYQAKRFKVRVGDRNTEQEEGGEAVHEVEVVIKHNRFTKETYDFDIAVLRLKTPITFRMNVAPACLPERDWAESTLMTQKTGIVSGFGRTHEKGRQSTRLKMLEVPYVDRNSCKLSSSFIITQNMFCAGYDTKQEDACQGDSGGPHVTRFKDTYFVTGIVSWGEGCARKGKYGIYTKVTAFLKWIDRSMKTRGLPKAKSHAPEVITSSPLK

B1: BIIB-9-884 (antibody, V domains shown)
VH: QLQLQESGPGLVKPSETLSLTCTVSGGSISSSDYYWGWIRQPPGKGLEWIGSIYYSGSTYYNPSLKSRVTISVDTSKNQFSLKLSSVTAADTAVYYCARSPRHKVRGPNWFDPWGQGTLVTVSS
VL: EIVLTQSPGTLSLSPGERATLSCRASQSVSSSYLAWYQQKPGQAPRLLIYGASSRATGIPDRFSGSGSGTDFTLTISRLEPEDFAVYYCQQYHLLPPTFGGGTKVEIK
B2: BIIB-9-446 (antibody, V domains shown)
VH: QVQLVQSGAEVKKPGSSVKVSCKASGGTFSSYAISWVRQAPGQGLEWMGGIIPIFGTASYAQKFQGRVTITADESTSTAYMELSSLRSEDTAVYYCARGLEVGYYGYFDYWGQGTLVTVSS
VL: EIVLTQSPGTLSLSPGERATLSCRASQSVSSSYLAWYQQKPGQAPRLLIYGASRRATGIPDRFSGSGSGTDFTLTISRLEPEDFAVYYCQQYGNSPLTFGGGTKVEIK
B3: BIIB-9-419 (antibody, V domains shown)
VH: QVQLVQSGAEVKKPGASVKVSCKASGYTFTSYYMHWVRQAPGQGLEWMGIINPSGGSTSYAQKFQGRVTMTRDTSTSTVYMELSSLRSEDTAVYYCAREPTFYASYFDLWGRGTLVTVS
VL: EIVMTQSPATLSLSPGERATLSCRASQSVSSYLAWYQQKPGQAPRLLIYDSSNRATGIPARFSGSGSGTDFTLTISSLEPEDFAVYYCQQVSTHPYTFGGGTKVEIK
B4: BIIB-9-1273 (antibody, V domains shown)
VH: QVQLVQSGAEVKKPGASVKVSCKASGYTFTSYYMHWVRQAPGQGLEWMGIINPSGGSTSYAQKFQGRVTMTRDTSTSTVYMELSSLRSEDTAVYYCARDTGGYAFDIWGQGTLVTVSS
VL: B3 VL with M4L, S7Y, S51A, V91S, S92A, T93N, H94F, Y96F
B5: BIIB-9-627 (antibody, V domains shown)
VH: QVQLVQSGAEVKKPGASVKVSCKASGYTFTSYYMHWVRQAPGQGLEWMGIINPSGGSTSYAQKFQGRVTMTRDTSTSTVYMELSSLRSEDTAVYYCARADYDYWSGYGGLGMDVWGQGTTVTVSS
VL: not shown
B6: BIIB-9-616 (antibody, V domains shown)
VH: B4 VH with D99G, T100G, G101S, G102K, A104F, I107L, Q110R
VL: EIVMTQSPATLSVSPGERATLSCRASQSVSSSLAWYQQKPGQAPRLLIYGASTRATGIPARFSGSGSGTEFTLTISSLQSEDFAVYYCQQADNFPFTFGGGTKVEIK
B7: BIIB-9-1282 (antibody, V domains shown)
VH: QVQLVQSGAEVKKPGASVKVSCKASGYTFTSYYMVWVRQAPGQGLEWMGIINPSGGSTSYAQKFQGRVTMTRDTSTSTVYMELSSLRSEDTAVYYCARVPTYRYSYLAFDIWGQGTMVTVSS
VL: B6 VL with S32N, A91H, D92N, N93H, F94L, F96I
B8: BIIB-9-469 (antibody, V domains shown)
VH: QVQLVQSGAEVKKPGASVKVSCKASGYTFTSYYMHWVRQAPGQGLEWMGIINPSGGSTSYAQKFQGRVTMTRDTSTSTVYMELSSLRSEDTAVYYCARDLGYGRSYDFDLWGRGTLVTVSS
VL: B6 VL with S32N, Y49F, A91S, D92N
B9: BIIB-9-882 (antibody, V domains shown)
VH: QVQLVQSGAEVKKPGASVKVSCKASGYTFTSYYMHWVRQAPGQGLEWMGIINPSGGSTSYAQKFQGRVTMTRDTSTSTVYMELSSLRSEDTAVYYCARGPTDSSGYLDMDVWGKGTTVTVSS
VL: B6 VL with S32N, Y49F, A91H, F96P
B10: BIIB-9-579 (antibody, V domains shown)
VH: QVQLVQSGAEVKKPGASVKVSCKASGYTFTSYYMVWVRQAPGQGLEWMGIINPSGGSTSYAQKFQGRVTMTRDTSTSTVYMELSSLRSEDTAVYYCARGPWYSYYYMDVWGKGTTVTVSS
VL: DIQMTQSPSSLSASVGDRVTITCRASQSISSYLNWYQQKPGKAPKLLIYGASSLQSGVPSRFSGSGSGTDFTLTISSLQPEDFATYYCQQAFSFPFTFGGGTKVEIK
B11: BIIB-9-1280 (antibody, V domains shown)
VH: B10 VH
VL: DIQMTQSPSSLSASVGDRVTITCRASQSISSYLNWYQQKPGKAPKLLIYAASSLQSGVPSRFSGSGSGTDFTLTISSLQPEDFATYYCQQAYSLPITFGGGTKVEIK
B12: BIIB-9-625 (antibody, V domains shown)
VH: QLQLQESGPGLVKPSETLSLTCTVSGGSISSSSYAWGWIRQPPGKGLEWIGSIYYSGSTYYNPSLKSRVTISVDTSKNQFSLKLSSVTAADTAVYYCARDRGWYTEVLDIWGQGTMVTVSS
VL: B10 VL with G50A, A91S, F92D, S93T, F94D, F96P
B13: BIIB-12-928 (antibody, V domains shown)
VH: QVQLVEFGVGVVQPGRSLRLSCAASGFTFSSYGMHWVRQAPGKGLEWVAVISYDGSNKYYADSVKGRFTISRDNSKNTLYLQMNSLRAEDTAVYYCAKGGTYLDTWGQGTLVTVSS
VL: B1 VL with S30R, H93V, L94R, L95F, P97L
B14: BIIB-12-1288 (antibody, V domains shown)
VH: QVQLVQSGAEVKKPGASVKVSCKASGYTFTSYYMHWVRQAPGQGLEWMGIINPSGGSTSYAQKFQGRVTMTRDTSTSTVYMELSSLRSEDTAVYYCARGGANDYGSSSRWWYFDLWGRGTLVTVSS
VL: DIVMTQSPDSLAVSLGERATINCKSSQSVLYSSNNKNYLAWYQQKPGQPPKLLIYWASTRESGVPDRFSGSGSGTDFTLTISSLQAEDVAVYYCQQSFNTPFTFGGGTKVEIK
B15: BIIB-12-1330 (antibody, V domains shown)
VH: QVQLVESGGGVVQPGRSLRLSCAASGFTFSSYGMHWVRQAPGKGLEWVAVISYDGSNKYYADSVKGRFTISRDNSKNTLYLQMNSLRAEDTAVYYCAKGGSARWINIWGQGTTVTVSS
VL: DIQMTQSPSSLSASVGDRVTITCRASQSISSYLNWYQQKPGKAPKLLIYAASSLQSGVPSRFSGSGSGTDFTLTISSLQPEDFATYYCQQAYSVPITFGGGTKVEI
B16: BIIB-12-920 (antibody, V domains shown)
VH: QVQLVQSGAEVKKPGASVKVSCKASGYTFTSYGISWVRQAPGQGLEWMGWISPYNGNTNYAQKLQGRVTMTTDTSTSTAYMELRSLRSDDTAVYYCARGSGHTTMFWGQGTLVTVSS
VL: EIVMTQSPATLSVSPGERATLSCRASQSVSSNLAWYQQKPGQAPRLLIYSASTRATGIPARFSGSGSGTEFTLTISSLQSEDFAVYYCQQANAYPPTFGGGTKVEI
B17: BIIB-12-934 (antibody, V domains shown)
VH: QVQLVESGGGVVQPGRSLRLSCAASGFTFSSYGMHWVRQAPGKGLEWVAVISYDGSNKYYADSVKGRFTISRDNSKNTLYLQMNSLRAEDTAVYYCARESGGHSYGMDVWGQGTTVTVSS
VL: B16 VL with M4L, S50G, A91F, A93D, Y94H, P96I
B18: BIIB-12-1299 (antibody, V domains shown)
VH: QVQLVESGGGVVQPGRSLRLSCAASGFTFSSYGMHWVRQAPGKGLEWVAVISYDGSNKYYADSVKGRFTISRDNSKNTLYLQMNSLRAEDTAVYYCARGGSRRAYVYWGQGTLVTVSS
VL: B6 VL with S32N, A91L, D92N, F96I

Substitutions are numbered along the chain they refer to.

The target of one assay is free FIXa (activated Factor IX) (UniProt P00740 47-191; P00740 227-461). Briefly: BLI.
In general, Kd refers to the concentration at which binding is half-saturated. B1 returned a Kd of 1.79 nM.
On to B2, for which the Kd came out at 17.5 nM.
For B3, the Kd stood at 21.1 nM.
On to B4, for which the Kd worked out at 20.9 nM.
B5: binding was put at a Kd of 233 nM.
In turn, B6 came in with a Kd of 16.8 nM.
B7 had a Kd of 43.9 nM.
Same read-out and setting: under B8 stands 13.3 nM.
As to B9, binding was put at a Kd of 2.31 nM.
B10 came in with a Kd of 11.3 nM.
In the case of B11, the affinity, expressed as Kd, was 51.7 nM.
On to B12, for which the Kd was 11.3 nM.

For a further assay, the target named is T1, FX zymogen. Description: BLI. For orientation: In BLI a coated tip is dipped into the sample, and binding shifts an interference pattern.
B13: the Kd was found to be 23.1 nM.
Still for that read-out and setting: under B14 stands 85.6 nM; under B15, 56.8 nM.
B16 gave a Kd of 27.7 nM.
Regarding B17, the Kd came out at 60.2 nM.
Consider B18, for which the affinity, expressed as Kd, was 50.8 nM. The Kd values of the last two molecules are within 1.5-fold of each other.
